{"source": "patent US20100291705A1", "about": "“ANTIGEN EXPOSING MICELLE AND UNORDERED AGGREGATE” (EURO-DIAGNOSTICA AB, priority 2007, published 2010)", "molecules": {"B1": {"name": "β2-GPI: protein incubated with bound cardiolipin aggregates to form the cardiolipin-β2-GPI complex (protein, UniProt P02749 20-345, looked up)", "Beta-2-glycoprotein 1": "GRTCPKPDDLPFSTVVPLKTFYEPGEEITYSCKPGYVSRGGMRKFICPLTGLWPINTLKCTPRVCPFAGILENGAVRYTTFEYPNTISFSCNTGFYLNGADSAKCTEEGKWSPELPVCAPIICPPPSIPTFATLRVYKPSAGNNSLYRDTAVFECLPQHAMFGNDTITCTTHGNWTKLPECREVKCPFPSRPDNGFVNYPAKPTLYYKDKATFGCHDGYSLDGPEEIECTKLGNWSAMPSCKASCKVPVKKATVVYQGERVKIQEKFKNGMLHGDKVSFFCKNKEKKCSYTEDAQCIDGTIEVPKCFKEHSSLAFWKTDASDVKPC"}}, "target": "T1, (Homo sapiens, UniProt P02749)", "T1 sequence (P02749 20-345)": "B1 Beta-2-glycoprotein 1", "test": "Detection of β2-GPI associated to the cardiolipin aggregates with mouse IgG anti-β2-GPI antibody (ELISA)", "type": "binding", "conditions": "after washing with 0.05% Tween-20 in PBS", "protocol": "Antigen exposing lipid aggregates were prepared according to example 2 by mixing 90% cardiolipin with 10% PE-bio. The lipid aggregates were then adsorbed on a 96-well streptavidin coated ELISA plate (Eurodiagnostica AB) at concentration 90 μg/ml. The plate was incubated for 1 h at room temperature. The plate was washed three times with 0.05% Tween-20 in PBS and then incubated with or without β2-GPI for 30 minutes.\nTo determine the amount β2-GPI bound to cardiolipin aggregates a mouse IgG anti-β2-GPI antibody was used. This antibody was detected with an alkaline phosphatase conjugated anti-mouse IgG antibody (Sigma-Aldrich).\nAll the antibodies were diluted in PBS with 1% BSA and incubated for 1 h at RT. The plate was developed with alkaline phosphatase yellow liquid system for ELISA (Sigma-Aldrich) and absorbance 405 nm determined after 10-30 min. Between each incubation step the plate was washed three times with 0.05% Tween-20 in PBS."}
{"molecule": "B1", "values": [{"measurement": "β2-GPI bound to cardiolipin aggregates (FIG. 8)", "result": "remained associated with cardiolipin after washing with 0.05% Tween-20 in PBS"}]}
